The values that follow come from PMC8962251 (2022).

The assay addresses SARS-CoV (2002) S1S2-His trimer (SARS-CoV (2002)). Nature of the assay: SPR.

B1: CVRBDL-3_3 (designed binder)
chain: HDFWWEYDKKNDTWTRRRR
For the molecule B1, the Kd is ~41 mM.
